Results from patent US20240190989A1 (BEIGENE SWITZERLAND, published 2024).
“And” between values parts separate entries of the source, which are not always exact repeats. Equal entries are not always repeated.

Columns and labels:
[1] = target: T1, FcγRIIAR131 (UniProt P12318 34-218); assay: ELISA-based FcγR binding, luminescence read-out (RLU)
T1 sequence (looked up): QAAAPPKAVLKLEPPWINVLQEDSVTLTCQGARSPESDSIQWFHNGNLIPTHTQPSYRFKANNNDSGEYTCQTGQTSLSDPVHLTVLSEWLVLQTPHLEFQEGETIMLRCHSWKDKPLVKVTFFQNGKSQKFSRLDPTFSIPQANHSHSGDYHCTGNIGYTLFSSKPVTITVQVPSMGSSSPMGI

[2] = target: FcγRIIIAV158 (UniProt P08637 17-208); assay: as above
[3] = target: FcγRIIIAF158 (UniProt P08637 17-208); assay: as above
[4] = target: T2, FcγRIIB (UniProt P31994 43-217, limits assumed); assay: as above
T2 sequence (looked up): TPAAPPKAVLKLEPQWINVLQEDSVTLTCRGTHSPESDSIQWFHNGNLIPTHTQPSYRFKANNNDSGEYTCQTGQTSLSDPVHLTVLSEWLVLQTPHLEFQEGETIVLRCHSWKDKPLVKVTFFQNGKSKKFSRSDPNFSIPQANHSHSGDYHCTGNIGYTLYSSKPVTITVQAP

[5] = target: T3, FcγRIIAH131 (UniProt P12318 34-218); assay: as above
T3 sequence (looked up): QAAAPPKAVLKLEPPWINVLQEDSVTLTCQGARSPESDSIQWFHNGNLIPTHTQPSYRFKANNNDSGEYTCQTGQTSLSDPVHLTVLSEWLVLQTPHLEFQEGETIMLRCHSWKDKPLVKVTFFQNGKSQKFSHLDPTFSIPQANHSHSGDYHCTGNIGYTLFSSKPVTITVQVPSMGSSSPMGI

[6] = target: FcγRI (UniProt P12314 16-288, limits assumed); assay: as above
[7] = target: FcγRIIIB (UniProt O75015 17-200, limits assumed); assay: as above
[8] = target: T4, soluble human CEA, amino acids 1-687 of huCEA with C-terminal 6xHis tag (human, UniProt P06731 35-687); assay: antigen ELISA on huCEA (CEA/His), two batches of BE-146 [panel A]
T4 construct: also called sCEA; soluble huCEA
T4 sequence: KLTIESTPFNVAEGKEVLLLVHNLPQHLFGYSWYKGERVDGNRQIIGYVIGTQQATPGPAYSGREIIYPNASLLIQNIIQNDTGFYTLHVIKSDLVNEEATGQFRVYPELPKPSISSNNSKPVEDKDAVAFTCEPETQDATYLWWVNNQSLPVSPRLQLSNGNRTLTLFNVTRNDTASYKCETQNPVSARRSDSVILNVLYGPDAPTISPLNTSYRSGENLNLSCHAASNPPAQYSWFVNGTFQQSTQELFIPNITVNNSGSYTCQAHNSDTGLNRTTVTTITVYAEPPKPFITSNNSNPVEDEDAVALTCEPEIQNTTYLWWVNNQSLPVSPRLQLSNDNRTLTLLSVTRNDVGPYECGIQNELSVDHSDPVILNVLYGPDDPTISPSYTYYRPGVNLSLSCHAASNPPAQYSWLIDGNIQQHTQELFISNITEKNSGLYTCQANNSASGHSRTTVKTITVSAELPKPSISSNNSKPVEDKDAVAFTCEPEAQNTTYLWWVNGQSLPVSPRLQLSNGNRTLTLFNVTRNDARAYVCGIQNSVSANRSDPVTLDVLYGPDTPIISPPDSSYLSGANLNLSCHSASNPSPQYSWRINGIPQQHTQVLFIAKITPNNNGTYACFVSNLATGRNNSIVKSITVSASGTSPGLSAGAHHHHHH

[9] = target: T5, cynoCEA (Cat. CE5-C52H5, Acrobiosystem) (cynomolgus monkey); assay: SPR, Monkey CEA
T5 construct: Bought protein; also called Monkey CEA

[10] = target: T6, full-length human CD137 on cells (Hut78/huCD137, HEK293 transfectants, JK-NFKB-CD137) (human, UniProt Q07011 24-255); assay: FACS on HuT78/CD137 cells
T6 construct: also called native CD137; TNFRSF9

[11] = target: T7, full-length human CEA on cells (MKN45, LOVO, L929/huCEA, CT26/CEA, CT26-OS8-CEA) (human, UniProt P06731 35-685); assay: FACS on CT26-OS8-CEA cells
T7 construct: also called CEACAM5; native CEA
T7 sequence: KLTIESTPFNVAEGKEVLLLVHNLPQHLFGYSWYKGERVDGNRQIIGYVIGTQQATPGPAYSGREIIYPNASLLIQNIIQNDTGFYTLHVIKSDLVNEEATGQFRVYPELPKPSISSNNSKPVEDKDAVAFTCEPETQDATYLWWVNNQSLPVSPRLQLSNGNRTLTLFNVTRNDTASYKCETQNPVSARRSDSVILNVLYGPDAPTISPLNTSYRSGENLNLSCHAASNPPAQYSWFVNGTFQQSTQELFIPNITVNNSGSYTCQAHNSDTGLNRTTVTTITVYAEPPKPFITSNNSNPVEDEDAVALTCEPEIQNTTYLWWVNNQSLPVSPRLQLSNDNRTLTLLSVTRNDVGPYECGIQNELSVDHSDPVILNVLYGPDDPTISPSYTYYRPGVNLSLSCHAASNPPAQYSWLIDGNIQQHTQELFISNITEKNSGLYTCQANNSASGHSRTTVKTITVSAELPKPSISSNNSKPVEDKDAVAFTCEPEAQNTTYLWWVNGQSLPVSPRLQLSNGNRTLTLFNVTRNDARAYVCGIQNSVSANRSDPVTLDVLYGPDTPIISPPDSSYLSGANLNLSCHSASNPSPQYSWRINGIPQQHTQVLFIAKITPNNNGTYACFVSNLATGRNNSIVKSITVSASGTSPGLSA

[12] = target: T4, soluble human CEA, amino acids 1-687 of …; assay: SPR, Human CEA

T6 sequence (Q07011 24-255 limits assumed): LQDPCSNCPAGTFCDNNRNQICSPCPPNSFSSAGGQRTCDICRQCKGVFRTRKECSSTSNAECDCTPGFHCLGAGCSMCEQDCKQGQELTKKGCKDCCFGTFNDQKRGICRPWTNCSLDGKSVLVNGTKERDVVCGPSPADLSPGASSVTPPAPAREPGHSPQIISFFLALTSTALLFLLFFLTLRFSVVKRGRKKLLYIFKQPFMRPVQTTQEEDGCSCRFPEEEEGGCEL
Chain of FcγRIIIAF158 (P08637 17-208): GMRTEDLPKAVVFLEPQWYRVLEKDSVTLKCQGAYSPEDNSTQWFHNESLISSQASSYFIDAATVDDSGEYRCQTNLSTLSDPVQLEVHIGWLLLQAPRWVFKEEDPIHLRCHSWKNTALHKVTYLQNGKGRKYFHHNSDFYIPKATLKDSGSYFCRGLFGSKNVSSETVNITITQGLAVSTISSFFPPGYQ
Chain of FcγRI (P12314 16-288 limits assumed): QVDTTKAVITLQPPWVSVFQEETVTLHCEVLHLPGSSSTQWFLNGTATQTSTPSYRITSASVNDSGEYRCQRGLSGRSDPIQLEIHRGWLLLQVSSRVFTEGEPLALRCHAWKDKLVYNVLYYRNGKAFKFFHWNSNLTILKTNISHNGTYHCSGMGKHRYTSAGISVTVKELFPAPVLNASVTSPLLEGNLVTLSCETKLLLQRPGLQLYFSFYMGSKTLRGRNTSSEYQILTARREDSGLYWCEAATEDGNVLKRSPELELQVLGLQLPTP
Chain of FcγRIIIAV158 (P08637 17-208 F176V): as the sequence (P08637 17-208) above, with F160V counted along it
Chain of FcγRIIIB (O75015 17-200 limits assumed): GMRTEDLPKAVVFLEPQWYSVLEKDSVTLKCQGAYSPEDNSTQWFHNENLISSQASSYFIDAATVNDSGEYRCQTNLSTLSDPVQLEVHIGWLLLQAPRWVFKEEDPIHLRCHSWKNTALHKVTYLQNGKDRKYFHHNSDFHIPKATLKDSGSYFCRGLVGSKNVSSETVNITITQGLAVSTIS

binding result [1]: no binding (tested: not shown) | binding result [2]: no binding (tested: not shown) | binding result [3]: no binding (tested: not shown) | binding result [4]: no binding (tested: not shown) | binding result [5]: no binding (tested: not shown) | binding result [6]: no binding (tested: not shown) | binding result [7]: no binding (tested: not shown) | EC50 (read off the curve) [8]: ~0.07 µg/mL | Kd [9]: 11.4 nM | koff [9]: 0.000717 s⁻¹ | kon [9]: 63000 M⁻¹ s⁻¹ | EC50 [10]: 2.26 µg/mL and 12.9 nM | EC50 [11]: 1.53 µg/mL and 8.75 nM | Kd [12]: 3 nM | koff [12]: 0.000295 s⁻¹ | kon [12]: 98500 M⁻¹ s⁻¹
B1: BE-146 (CEAxCD137 multispecific antibody) (bispecific antibody, human IgG1, kappa)
heavy: QVQLVQSGAEVKKPGASVKVSCKASGYIFTSYYLHWVRQAPGQGLEWIGYINPQTGKTSYAQKFQGRVTMTRDTSTSTVYMELSSLRSEDTAVYYCAREYGNYNYPLDYWGQGTLVTVSSASTKGPSVFPLAPSSKSTSGGTAALGCLVKDYFPEPVTVSWNSGALTSGVHTFPAVLQSSGLYSLSSVVTVPSSSLGTQTYICNVNHKPSNTKVDKKVEPKSCDKTHTCPPCPAPPAAGPSVFLFPPKPKDTLMISRTPEVTCVVVDVSHEDPEVKFNWYVDGVEVHNAKTKPREEQYNSTYRVVSVLTVLHQDWLNGKEYKCKVSNKALAAPIEKTISKAKGQPREPQVYTLPPSREEMTKNQVSLTCLVKGFYPSDIAVEWESNGQPENNYKTTPPVLDSDGSFFLYSKLTVDKSRWQQGNVFSCSVMHEALHNHYTQKSLSLSPGKGGGGSEVQLLESGGGLVQPGGSLRLSCAASGFTVSAEDVGWVRQAPGKGLEWVSAILDKGGSTYYAESVKGRFTISRDNAKNTLYLQMSSLRAEDTAVYYCARIVYHAGGGVTFDTRGQGTQVTVSS
light: DIQMTQSPSSLSASVGDRVTITCRASENQYGYLAWYQQKPGKVPKLLIYNYKNLVEGVPSRFSGSGSGTDFTLTISSLQPEDVATYYCQHHLGTPYTFGQGTKVEIKRTVAAPSVFIFPPSDEQLKSGTASVVCLLNNFYPREAKVQWKVDNALQSGNSQESVTEQDSKDSTYSLSSTLTLSKADYEKHKVYACEVTHQGLSSPVTKSFNRGEC
notes: Module ratio 2:2, Fc null version of huIgG1; copies: 2 + 2
